Results: the nanobody polyreactivity screen of Harvey et al. (2022)

experiment: yeast display, Sf9 membrane polyspecificity reagent, FACS + sequencing; frameworks hold sequencing errors
Procedure, shortened: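 Polyreactivity labels are assigned by the sorting gate from which each nanobody was recovered. The gates were low and high (top ~1%), set on anti-HA fluorescence for expression and streptavidin fluorescence for reagent binding. Before sorting, galactose-induced (36–48 hours) yeast display cells were stained for 1 hour at 4 °C with 10% biotinylated, detergent-solubilized Sf9 membrane reagent.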

Sequence	polyreactivity (PSR sort gate)
QVQLVESGGGLVQAGGSLRLSCAASGRTSYYAMGWYRQAPGKETELVAAINSGDSPTDADSVKGRFTISRDNAKNTVYLQMNTQTPEDTAVYYCATALYDWYSLEFDYWGQGTQVTVSS	low polyreactivity
QVQLVESGGGLVQAGGSLRLSCAASGRTSYYNTMGWYRPAPGKERELVAASTGRGDSTYYADSVKGRFTISRDNAKKTGYLQMNSLKPEDTAVYYCAADELHLLYRVSKFVDYNHWGQGTQVTVSS	low polyreactivity
QVQLVESGGGLVQAGGSLRLSCAASGRTVGGNAMGWYRQAPGKERELVAAINRSGGTTYYADSVKGRFTISRDNAKNTVYLQMNSLKPEDTAVYYCAARRTVSATRMGYWGQGTQVTVSS	high polyreactivity
QVQLVESGGGLVQAGGSLRLSCAASGRTVLVYTMGWYRQAPGKERELVAAISWSDGSTYYADSVKGRFTMSRDNAKNTVYLHMNSLKPEDTAVYYCAARTFSAFWRGGYDYWGQGTQVTVSS	low polyreactivity
QVQLVESGGGLVQAGGSLRLSCAASGRTVNAMGWYRQAPGKERELVAAINSGTSTYADSVKGRFTISRDNAKNTVYLQMNSLKPEDTAVYYCAKTYFWPFHGRFVGYDYWGQGTQVTVSS	low polyreactivity
QVQLVESGGGLVQAGGSLRLSCAASGRTVSSNAMGWYRQAPGKERELVASISFRGGRTYYADSVKGRFTISRDNAKNPVYLQMNSLKPEDTADYYCVSGTKRTGYGYWGQGTQVTVSS	high polyreactivity
QVQLVESGGGLVQAGGSLRLSCAASGRTVWSNAMGWYRQAPGKEREFVASISRTGVNTYYADSVKGRFTISRDYAKNSVYLQMNSLKPEDTAVYYCNVYSARRGVGTLARYSEYDYWGQGTQVTVSS	high polyreactivity
QVQLVESGGGLVQAGGSLRLSCAASGRTVYSYAMGWYRQAPGKERELVAAISYTGASTFYADSVKGRFTISRDNAKNTVYLQMNSLKPEDTAVYYCAAESQPSYGETDEYWGQGTQVTVSS	high polyreactivity
QVQLVESGGGLVQAGGSLRLSCAASGRTWFYAMGWYRQAPGKERELVAVISRSGASTNYADSVKGRFTISRDNAKNTVYLQMNSLKPEDTAVYYCAAGWRYRGGYWYPRLEYGYWGQGTQVTVSS	high polyreactivity
QVQLVESGGGLVQAGGSLRLSCAASGRTWSNAMGWYRQAPGKERELVAVITWDGVITYYADSVKGRFTISRDNAKNTVYLQMNSLKPEETAVYYCAATVYPGAGDYWGQGTQVTVSS	high polyreactivity
QVQLVESGGGLVQAGGSLRLSCAASGRTYAYYAIGWYRQEPGKERELVAAISSGGSTYYADSVKGLFTISRDNAKNTVYLQMNSLKPEDTAVNYCATRDKQYYYWGQGTQVTLSS	high polyreactivity
QVQLVESGGGLVQAGGSLRLSCAASGRTYDNTMGWYRKAHGKESELVAAISWSGGRTRYADSVKGRFTISRDNAKNTVYLQMNSLKPEDTAVYYCAAANGGYPPYRYVYGYYYWGQGTQVTVSS	high polyreactivity
QVQLVESGGGLVQAGGSLRLSCAASGRTYGGYAMGWYRQAPGKERELVAVINWRGGSTYYADSVKGRFTISRDNAKHTVYLQMNILKPEDTAVYYCNKVSLRTQSAQFHYWGQGTQVTVSS	high polyreactivity
QVQLVESGGGLVQAGGSLRLSCAASGRTYGYAMGSYRPAPGKERELVARITWRGGSTSYADSVKGRFTISRDNAKNTVYLQMNILKPEDTAVYYCAAGFYFPVYTYVRIRYYYWGQGTQVTVSS	high polyreactivity
QVQLVESGGGLVQAGGSLRLSCAASGRTYGYAMGWYTQAPGIERELVARINRTTGSTYYADSVKGRFTISRDNAKNTVYLQMNSLKPQDTAVYYCAKSSYSRALKLYYWGQGSQVTVSS	high polyreactivity
QVQLVESGGGLVQAGGSLRLSCAASGRTYHQYAMGWYRQAPGKERELVARITSGGRTNYADSVKGRFTISRDNAKNTVYLHMNSLKPEDTAVYYCPAASSYYFYISSKLDYWGQGTQVTVSS	high polyreactivity
QVQLVESGGGLVQAGGSLRLSCAASGRTYISNVIGWYRQAPGKERELVAAISGSSGSTRYADSVKGRFTISRDNAKNTVYLQMNSLKPEDSAVYYCAARAPWPKWGYYYWGQGTQVTVSS	high polyreactivity
